Measured values as given in paper doi:10.1101/2023.02.16.528799.

Biological target: TAX peptide, Human T-cell leukemia virus type I peptide on HLA-A2 (human)
Experiment: data from Cole et al., 2013

A6-TCR after mutation of the CDR3 beta loop (PDBID 4FTV)
fold enhancement of binding over A6-TCR: 1000 fold
